Test results from paper PMC13639016.

Biological target: QatB (Escherichia coli NCTC9009)
Assay: SEC-MALS

stoichiometry N | Substance
1 | QatC (enzyme)
1 | QatD (enzyme)
